From US20020004485A1

What was measured:
[1] = biological target: MC receptor endogenous to Xenopus laevis melanophores (Xenopus laevis); assay: Schild plot; antagonism of α-MSH pigment dispersion in Xenopus melanophores (functional)
[2] = biological target: human MCR-4 receptor (human) (UniProt P32245); assay: cell-based or functional assay
[3] = biological target: atypical MC receptor of Cos-7 cells; assay: cell-based or functional assay
[4] = biological target: human MCR-1 receptor (human) (UniProt Q01726); assay: cell-based or functional assay
[5] = biological target: human MCR-3 receptor (human) (UniProt P41968); assay: cell-based or functional assay
[6] = biological target: MC receptor endogenous to Xenopus laevis melanophores (Xenopus laevis); assay: cell-based or functional assay
[7] = biological target: atypical MC receptor of Cos-7 cells; assay: estimated from the shift of the α-MSH cAMP curve in Cos-7 cells (functional)
[8] = biological target: ACTH (MCR-2) receptor endogenous to murine Y1 adrenocortical cells (murine) (UniProt Q64326); assay: cell-based or functional assay
Chain of ACTH (MCR-2) receptor endogenous to murine Y1 adrenocortical cells (murine) (Q64326 whole entry): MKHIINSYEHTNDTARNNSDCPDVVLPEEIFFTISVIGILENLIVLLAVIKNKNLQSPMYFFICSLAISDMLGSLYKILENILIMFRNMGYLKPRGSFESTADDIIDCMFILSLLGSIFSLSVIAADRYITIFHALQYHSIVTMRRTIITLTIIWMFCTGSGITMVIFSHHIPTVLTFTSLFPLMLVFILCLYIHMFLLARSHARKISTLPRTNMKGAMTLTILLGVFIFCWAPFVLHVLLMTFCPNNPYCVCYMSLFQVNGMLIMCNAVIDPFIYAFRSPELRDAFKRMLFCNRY

Chain of human MCR-4 receptor (human) (P32245 whole entry): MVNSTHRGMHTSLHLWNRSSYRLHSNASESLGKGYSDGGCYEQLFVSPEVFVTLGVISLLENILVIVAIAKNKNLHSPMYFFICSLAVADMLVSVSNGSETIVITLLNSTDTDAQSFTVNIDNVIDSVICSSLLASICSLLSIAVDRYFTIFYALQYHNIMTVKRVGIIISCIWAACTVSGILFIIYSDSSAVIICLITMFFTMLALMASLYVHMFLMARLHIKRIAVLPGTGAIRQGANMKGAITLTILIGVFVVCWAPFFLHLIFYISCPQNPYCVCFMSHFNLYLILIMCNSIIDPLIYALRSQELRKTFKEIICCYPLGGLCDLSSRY
Chain of human MCR-1 receptor (human) (Q01726 whole entry): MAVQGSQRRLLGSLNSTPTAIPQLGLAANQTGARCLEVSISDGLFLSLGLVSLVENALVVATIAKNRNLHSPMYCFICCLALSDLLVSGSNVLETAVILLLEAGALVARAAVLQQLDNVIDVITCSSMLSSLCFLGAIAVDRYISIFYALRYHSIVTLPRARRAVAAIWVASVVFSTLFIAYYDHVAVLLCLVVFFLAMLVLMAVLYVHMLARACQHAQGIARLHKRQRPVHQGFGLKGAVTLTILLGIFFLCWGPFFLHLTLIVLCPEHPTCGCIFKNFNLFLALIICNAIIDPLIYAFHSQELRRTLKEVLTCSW
Chain of human MCR-3 receptor (human) (P41968 whole entry): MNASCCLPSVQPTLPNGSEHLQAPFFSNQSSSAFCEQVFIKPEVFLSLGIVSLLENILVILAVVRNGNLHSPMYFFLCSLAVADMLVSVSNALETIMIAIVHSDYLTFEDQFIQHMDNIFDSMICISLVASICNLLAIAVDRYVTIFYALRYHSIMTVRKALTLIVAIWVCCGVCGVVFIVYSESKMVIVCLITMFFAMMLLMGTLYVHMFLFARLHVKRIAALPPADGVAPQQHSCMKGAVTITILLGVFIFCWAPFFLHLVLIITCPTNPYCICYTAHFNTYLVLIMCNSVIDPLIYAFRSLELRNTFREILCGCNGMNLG

## dynorphin A(1-13)-NH2 (from UniProt P01213 207-219) (peptide)
[1]
  Ki: 71 nM
[2]
  EC50 of α-MSH in the presence of 30 µM dynorphin A(1-13)-NH2, MCR-4: 2000 nM
[3]
  fold shift of the α-MSH EC50 by 30 µM dynorphin A(1-13)-NH2: 50 fold
[4]
  EC50 of α-MSH in the presence of 30 µM dynorphin A(1-13)-NH2, MCR-1: 2100 nM
[5]
  EC50 of α-MSH in the presence of 30 µM dynorphin A(1-13)-NH2, MCR-3: 1600 nM
[6]
  IC50 nM in Frog Melanophore Assay: 145 nM
[7]
  Kd: 1000 nM

## dynorphin A(2-13) (from UniProt P01213 176-187) (peptide)
[1]
  Ki: 79 nM
[2]
  dose ratio of α-MSH dose-response curves with and without 30 µM dynorphin A(2-13), MCR-4: 147
[4]
  dose ratio of α-MSH dose-response curves with and without 30 µM dynorphin A(2-13), MCR-1: 250
[5]
  dose ratio of α-MSH dose-response curves with and without 30 µM dynorphin A(2-13), MCR-3: 128
[8]
  EC50 of ACTH-(1-24) in the presence of 30 µM dynorphin A(2-13): 28 nM
  fold shift to the right of the concentration-response curve of ACTH-(1-24) at 30 µM: 15 fold

## neurotensin(8-13) analog, D-Arg-Arg-Pro-Trp-Ile-Leu (peptide)
[6]
  IC50 in the frog MCR assay: > 10000 nM

## p-anisoyl-[D-Arg^6,9, D-Lys^11, D-Leu^12] dynorphin A(6-12)-NH2 (peptide)
[1]
  Ki: 12 nM
  pKi: 7.91

## urocortin (peptide)
[6]
  IC50 in the frog MCR assay: > 10000 nM
